Test results from patent US20120034229A1 (UNIVERSITE CLAUDE BERNARD LYON 1, published 2012).

How the values were obtained:
[1] = target: T1, recombinant LG4/5 fragment of chain alpha3 of human laminin-5 (human, UniProt Q16787 2981-3333, limits assumed); assay: Western blot of the purified recombinant LG4/5 fragment
T1 construct: Recombinantly expressed and purified on heparin as in Okamoto et al. 2003; also called alpha3LG4/5 fragment; LG4/5 domain
T1 sequence: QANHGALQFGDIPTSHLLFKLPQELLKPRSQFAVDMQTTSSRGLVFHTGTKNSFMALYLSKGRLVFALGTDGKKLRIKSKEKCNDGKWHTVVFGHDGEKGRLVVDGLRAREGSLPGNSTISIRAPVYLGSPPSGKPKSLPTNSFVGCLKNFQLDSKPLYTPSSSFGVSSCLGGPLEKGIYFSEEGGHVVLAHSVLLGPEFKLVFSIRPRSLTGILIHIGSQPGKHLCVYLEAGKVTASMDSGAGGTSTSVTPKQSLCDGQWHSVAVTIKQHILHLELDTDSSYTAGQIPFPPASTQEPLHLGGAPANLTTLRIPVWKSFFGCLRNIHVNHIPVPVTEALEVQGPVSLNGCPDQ

[2] = target: T2, mature form of alpha3 lacking the LG4/5 domain (human, UniProt Q16787-1 28-1348, limits assumed); assay: Western blot of purified LN5, reducing SDS-PAGE
T2 construct: domain: mature form of alpha3 lacking the LG4/5 domain; Alpha3 subunit of LN5 purified from keratinocyte culture medium, reducing SDS-PAGE; also called alpha3 chain of mature LN5
T2 sequence (looked up): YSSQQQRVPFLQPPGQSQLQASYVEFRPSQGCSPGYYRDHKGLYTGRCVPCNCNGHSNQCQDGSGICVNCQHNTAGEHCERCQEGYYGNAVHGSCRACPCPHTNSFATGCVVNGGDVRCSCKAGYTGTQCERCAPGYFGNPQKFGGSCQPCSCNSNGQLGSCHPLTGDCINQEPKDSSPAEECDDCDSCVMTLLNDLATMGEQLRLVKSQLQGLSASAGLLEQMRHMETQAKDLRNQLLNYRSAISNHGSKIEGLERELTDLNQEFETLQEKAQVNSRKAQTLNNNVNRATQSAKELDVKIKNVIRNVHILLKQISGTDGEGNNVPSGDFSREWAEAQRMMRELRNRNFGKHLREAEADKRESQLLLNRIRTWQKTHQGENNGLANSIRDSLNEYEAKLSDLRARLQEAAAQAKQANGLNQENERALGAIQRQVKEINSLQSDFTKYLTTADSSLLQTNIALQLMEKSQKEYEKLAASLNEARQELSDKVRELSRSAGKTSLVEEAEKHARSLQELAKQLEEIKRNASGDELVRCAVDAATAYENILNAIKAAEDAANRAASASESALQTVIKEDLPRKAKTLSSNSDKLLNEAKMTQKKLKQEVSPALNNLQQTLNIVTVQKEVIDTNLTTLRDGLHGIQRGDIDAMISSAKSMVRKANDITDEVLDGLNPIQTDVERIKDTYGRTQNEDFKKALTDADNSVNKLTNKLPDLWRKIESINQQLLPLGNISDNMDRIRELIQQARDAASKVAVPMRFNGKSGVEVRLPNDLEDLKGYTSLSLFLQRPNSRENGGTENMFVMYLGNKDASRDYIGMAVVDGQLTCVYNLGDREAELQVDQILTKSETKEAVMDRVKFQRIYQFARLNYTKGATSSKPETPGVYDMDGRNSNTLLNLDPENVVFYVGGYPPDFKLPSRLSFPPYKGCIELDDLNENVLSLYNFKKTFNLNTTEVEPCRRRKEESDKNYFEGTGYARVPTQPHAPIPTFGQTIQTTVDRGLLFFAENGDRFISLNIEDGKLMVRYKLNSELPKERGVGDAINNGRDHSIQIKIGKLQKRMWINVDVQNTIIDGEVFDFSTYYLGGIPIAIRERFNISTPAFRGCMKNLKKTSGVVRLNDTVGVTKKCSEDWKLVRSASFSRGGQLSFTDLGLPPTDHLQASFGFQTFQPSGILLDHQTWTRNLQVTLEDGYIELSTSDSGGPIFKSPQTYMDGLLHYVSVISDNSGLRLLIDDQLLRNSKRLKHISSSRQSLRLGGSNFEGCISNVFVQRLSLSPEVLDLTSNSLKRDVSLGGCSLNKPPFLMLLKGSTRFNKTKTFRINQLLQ

B1: 1H12 monoclonal antibody produced by the hybridoma cell line named 1H12 (C.N.C.M. I-3890) (antibody, V domains shown)
VH: VKLQQSGPELVKPGASVKISCKTSGYTFTEYTIHWVKQSHGKTLEWIGGINPKNGDTSYNQKFKGKATLTVDKSSNTAYMEFRSLTSEDSAVYYCASPDLPPMDYWGQGTTVTVSS
VL: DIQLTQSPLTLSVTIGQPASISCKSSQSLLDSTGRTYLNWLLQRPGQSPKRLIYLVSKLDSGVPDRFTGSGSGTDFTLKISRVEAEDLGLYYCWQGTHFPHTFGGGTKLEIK
notes: Mouse IgG1 kappa from hybridoma (supernatant or ascites); Ends of the V domains come from PCR primers; also called 1H12 mAb; mAb 1H12
B1: binds [1]; no binding [2].
